# Test results: patent US20120003149A1
# Numbering of substitutions follows the chain as printed.
# B1: C0804 antibody (antibody, V domains shown)
# VH: QIQLVQSGPELKKPGETVKISCKVSGYTFTDYSMHWVKQAPGKGLKWMAWINTETGKPTYADDFKGRFAFSLEASASTAYLQINNLKNEDTATYFCASLDYWGQGTTLTVSS
# VL: DVLMTQTPLSLPVSLGDQASISCRSSQNVVHSSGNTYLEWFLQKPGQSPKLLIYKVSTRFSGVPDRFSGSGSGTDFTLKISRVEAEDLGVYYCFQGSHVPYTFGGGTKLEIKR
# B2: C0815 antibody (antibody, V domains shown)
# VH: B1 VH with K13N, A74T, N85T
# VL: B1 VL with T58N
# Columns and labels:
# [1] = biological target: full-length human GPR87 with an N-terminal FLAG tag, stably expressed on CHO cells (human); test: flow cytometry, hGPR87 stable expression CHO cell line, antibody at 1 µg/mL (no primary antibody: 18.36)
# Sequence of full-length human GPR87 with an N-terminal FLAG tag, stably expressed on CHO cells (human) (chain, as listed by the source): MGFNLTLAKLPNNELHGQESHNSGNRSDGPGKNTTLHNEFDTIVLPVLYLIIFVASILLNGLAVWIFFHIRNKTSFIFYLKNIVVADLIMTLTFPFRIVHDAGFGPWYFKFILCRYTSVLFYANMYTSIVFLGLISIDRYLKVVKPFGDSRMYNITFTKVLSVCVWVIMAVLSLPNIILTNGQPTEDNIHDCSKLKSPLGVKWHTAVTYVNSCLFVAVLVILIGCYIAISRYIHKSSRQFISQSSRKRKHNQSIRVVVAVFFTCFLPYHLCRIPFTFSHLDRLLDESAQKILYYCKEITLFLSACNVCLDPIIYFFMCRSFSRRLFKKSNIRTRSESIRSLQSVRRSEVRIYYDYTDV
# [2] = biological target: full-length human GPR87 with an N-terminal FLAG tag, stably expressed on CHO cells (human); test: flow cytometry, hGPR87 stable expression CHO cell line, antibody at 10 µg/mL (no primary antibody: 18.36)
# [3] = biological target: full-length human GPR87 with an N-terminal FLAG tag, stably expressed on CHO cells (human); test: flow cytometry, hGPR87 stable expression CHO cell line, antibody at 0.1 µg/mL (no primary antibody: 18.36)
# [4] = biological target: full-length human GPR87 with an N-terminal FLAG tag, stably expressed on CHO cells (human); test: flow cytometry, hGPR87 stable expression CHO cell line, antibody at 0.01 µg/mL (no primary antibody: 18.36)
# [5] = biological target: human GPR87 (G protein-coupled receptor 87), endogenously expressed in Me180 cells (human); test: flow cytometry, Me180 cells transfected with control siRNA, antibody at 1 µg/mL (no primary antibody: 10.71)
# Sequence of human GPR87 (G protein-coupled receptor 87), endogenously expressed in Me180 cells (human) (chain, as listed by the source): as above
# [6] = biological target: human GPR87 (G protein-coupled receptor 87), endogenously expressed in Me180 cells (human); test: flow cytometry, Me180 cells transfected with control siRNA, antibody at 10 µg/mL (no primary antibody: 10.71)
# [7] = biological target: human GPR87 (G protein-coupled receptor 87), endogenously expressed in Me180 cells (human); test: flow cytometry, Me180 cells transfected with control siRNA, antibody at 0.1 µg/mL (no primary antibody: 10.71)
# [8] = biological target: human GPR87 (G protein-coupled receptor 87), endogenously expressed in Me180 cells (human); test: flow cytometry, Me180 cells transfected with siRNA against GPR87 (expression suppressed to 5.9% at the RNA level), antibody at 1 µg/mL (no primary antibody: 10.16)
# [9] = biological target: human GPR87 (G protein-coupled receptor 87), endogenously expressed in Me180 cells (human); test: flow cytometry, Me180 cells transfected with siRNA against GPR87 (expression suppressed to 5.9% at the RNA level), antibody at 10 µg/mL (no primary antibody: 10.16)
# [10] = biological target: human GPR87 (G protein-coupled receptor 87), endogenously expressed in Me180 cells (human); test: flow cytometry, Me180 cells transfected with siRNA against GPR87 (expression suppressed to 5.9% at the RNA level), antibody at 0.1 µg/mL (no primary antibody: 10.16)
Binder,geometric mean of the fluorescence intensity [1],geometric mean of the fluorescence intensity [2],geometric mean of the fluorescence intensity [3],geometric mean of the fluorescence intensity [4],geometric mean of the fluorescence intensity [5],geometric mean of the fluorescence intensity [6],geometric mean of the fluorescence intensity [7],geometric mean of the fluorescence intensity [8],geometric mean of the fluorescence intensity [9],geometric mean of the fluorescence intensity [10]
B1,578,1240,110,28.9,24.6,63.5,12.9,12.9,20.6,10.3
B2,496,1290,91.6,26.9,28.8,60.5,13.3,13.6,22.4,10.1
